For assay [1], the target named is IL-18 (human) (UniProt Q14116). The assay is described as follows: cell-based or functional assay.
Assay [2] addresses IL-18BP (human) (UniProt O95998). The assay is described as follows: cell-based or functional assay.

Sequence of IL-18BP (human) (O95998 31-194): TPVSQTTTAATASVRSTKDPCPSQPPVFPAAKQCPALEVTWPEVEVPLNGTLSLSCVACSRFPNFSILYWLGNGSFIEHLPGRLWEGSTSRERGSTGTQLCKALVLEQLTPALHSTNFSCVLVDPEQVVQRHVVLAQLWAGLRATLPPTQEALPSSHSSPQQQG
Sequence of IL-18 (human) (Q14116 37-193 limits assumed): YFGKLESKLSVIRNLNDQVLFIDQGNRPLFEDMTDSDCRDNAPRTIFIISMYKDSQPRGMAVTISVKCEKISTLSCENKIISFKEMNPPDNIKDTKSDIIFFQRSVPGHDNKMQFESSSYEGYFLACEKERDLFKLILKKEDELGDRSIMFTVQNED

With “IL-18BP (from UniProt O95998 31-194) (receptor)”, in assay [1], the activity of IL-18 (IFNγ release by NKO cells, % of IL-18 25 ng/ml plus IL-12 without IL-18BP or IL-1F7b) at 3.12 ng/ml of IL-18BP, without IL-1F7b stood at 59% and the activity of IL-18 (IFNγ release by NKO cells, % of IL-18 25 ng/ml plus IL-12 without IL-18BP or IL-1F7b) at 6.25 ng/ml of IL-18BP, without IL-1F7b stood at 76%.
In assay [2], “mature IL-1F7b (N-terminus E21) (from UniProt Q9NZH6 21-218) (ligand)” showed an activity of IL-18 (IFNγ release by NKO cells, %) at 3.12 ng/ml of IL-18BP with mature IL-1F7b 250 ng/ml of 40%; an activity of IL-18 (IFNγ release by NKO cells, %) at 6.25 ng/ml of IL-18BP with mature IL-1F7b 250 ng/ml of 55%; a further decrease in activity of IL-18 at 3.12 ng/ml of IL-18BP with mature IL-1F7b of 19%; a further decrease in activity of IL-18 at 6.25 ng/ml of IL-18BP with mature IL-1F7b of 21%.

The values above are taken from patent publication US20040120923A1.
